{
  "source": "patent US20190352359A1",
  "target": "HLA-A*24",
  "test": "UV peptide-exchange ELISA (anti-b2m); yield grade ++ = >20%",
  "data": [
    {"binder": "TQFFIPYTI (modifications not checked)", "note": "[COL10-002]", "values": [
      {"measurement": "peptide exchange yield", "result": "20 to 50", "unit": "%"}
    ]}
  ]
}
